Results as given in patent US20140087995A1 (published 2014).
Numbered stars: 1 amine (or outer) side, 2 acyl side, 3 side chain; on linkers, the order of the positions; unused ones are H or OH. Bridge positions count the residues as written; N and C are the ends. Side chains are listed from the residue outwards. Ends that are not written are not given here. * marks the point of attachment. C20 diacid = O=C(O)CCCCCCCCCCCCCCCCCCC(=O)*; γGlu = O=C(O)[C@H](CCC(=O)[*:2])N[*:1]; AEEA = NCCOCCOCC(=O)O

T1: human calcitonin receptor (human, UniProt P30988 25-474)
T1 construct: whole, on cells; also called hCTR; hCT
T1 sequence (looked up): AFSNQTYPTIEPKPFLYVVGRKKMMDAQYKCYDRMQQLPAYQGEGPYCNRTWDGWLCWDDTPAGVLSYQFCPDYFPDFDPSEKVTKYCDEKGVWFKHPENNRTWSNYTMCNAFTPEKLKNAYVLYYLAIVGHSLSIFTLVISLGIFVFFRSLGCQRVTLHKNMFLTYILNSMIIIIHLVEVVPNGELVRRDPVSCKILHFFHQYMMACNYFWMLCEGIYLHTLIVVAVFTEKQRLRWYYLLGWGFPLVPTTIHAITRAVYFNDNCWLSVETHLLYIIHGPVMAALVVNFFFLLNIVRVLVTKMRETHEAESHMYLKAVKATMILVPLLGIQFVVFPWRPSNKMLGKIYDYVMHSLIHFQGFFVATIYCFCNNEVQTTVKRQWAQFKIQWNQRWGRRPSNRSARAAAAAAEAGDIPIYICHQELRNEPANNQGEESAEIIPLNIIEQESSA

B1: N^ε1-[2-[2-[2-[[(4S)-4-carboxy-4-(19-carboxynonadecanoylamino)butanoyl]amino]ethoxy]ethoxy]acetyl]-[Arg14,Arg17,Pro21,Pro27]-h-amylin (peptide)
peptide: K([AEEA-γGlu-C20 diacid])CNTATCATQRLARFLRHSSPNFGAIPSSTNVGSNTY-NH2
modifications: disulfide 2-7; N-terminus assumed
SMILES: CC[C@H](C)[C@H](NC(=O)[C@H](C)NC(=O)CNC(=O)[C@H](Cc1ccccc1)NC(=O)[C@H](CC(N)=O)NC(=O)[C@@H]1CCCN1C(=O)[C@H](CO)NC(=O)[C@H](CO)NC(=O)[C@H](Cc1c[nH]cn1)NC(=O)[C@H](CCCNC(=N)N)NC(=O)[C@H](CC(C)C)NC(=O)[C@H](Cc1ccccc1)NC(=O)[C@H](CCCNC(=N)N)NC(=O)[C@H](C)NC(=O)[C@H](CC(C)C)NC(=O)[C@H](CCCNC(=N)N)NC(=O)[C@H](CCC(N)=O)NC(=O)[C@@H](NC(=O)[C@H](C)NC(=O)[C@@H]1CSSC[C@H](NC(=O)[C@@H](N)CCCCNC(=O)COCCOCCNC(=O)CC[C@H](NC(=O)CCCCCCCCCCCCCCCCCCC(=O)O)C(=O)O)C(=O)N[C@@H](CC(N)=O)C(=O)N[C@@H]([C@@H](C)O)C(=O)N[C@@H](C)C(=O)N[C@@H]([C@@H](C)O)C(=O)N1)[C@@H](C)O)C(=O)N1CCC[C@H]1C(=O)N[C@@H](CO)C(=O)N[C@@H](CO)C(=O)N[C@H](C(=O)N[C@@H](CC(N)=O)C(=O)N[C@H](C(=O)NCC(=O)N[C@@H](CO)C(=O)N[C@@H](CC(N)=O)C(=O)N[C@H](C(=O)N[C@@H](Cc1ccc(O)cc1)C(N)=O)[C@@H](C)O)C(C)C)[C@@H](C)O
notes: also called compound 82
B2: N^ε1-[2-[2-[2-[[(4S)-4-carboxy-4-(19-carboxynonadecanoylamino)butanoyl]amino]ethoxy]ethoxy]acetyl]-[Arg17,Pro21,Pro27,Arg34]-h-amylin (peptide)
peptide: K([AEEA-γGlu-C20 diacid])CNTATCATQRLANFLRHSSPNFGAIPSSTNVGRNTY-NH2
modifications: disulfide 2-7; N-terminus assumed
SMILES: CC[C@H](C)[C@H](NC(=O)[C@H](C)NC(=O)CNC(=O)[C@H](Cc1ccccc1)NC(=O)[C@H](CC(N)=O)NC(=O)[C@@H]1CCCN1C(=O)[C@H](CO)NC(=O)[C@H](CO)NC(=O)[C@H](Cc1c[nH]cn1)NC(=O)[C@H](CCCNC(=N)N)NC(=O)[C@H](CC(C)C)NC(=O)[C@H](Cc1ccccc1)NC(=O)[C@H](CC(N)=O)NC(=O)[C@H](C)NC(=O)[C@H](CC(C)C)NC(=O)[C@H](CCCNC(=N)N)NC(=O)[C@H](CCC(N)=O)NC(=O)[C@@H](NC(=O)[C@H](C)NC(=O)[C@@H]1CSSC[C@H](NC(=O)[C@@H](N)CCCCNC(=O)COCCOCCNC(=O)CC[C@H](NC(=O)CCCCCCCCCCCCCCCCCCC(=O)O)C(=O)O)C(=O)N[C@@H](CC(N)=O)C(=O)N[C@@H]([C@@H](C)O)C(=O)N[C@@H](C)C(=O)N[C@@H]([C@@H](C)O)C(=O)N1)[C@@H](C)O)C(=O)N1CCC[C@H]1C(=O)N[C@@H](CO)C(=O)N[C@@H](CO)C(=O)N[C@H](C(=O)N[C@@H](CC(N)=O)C(=O)N[C@H](C(=O)NCC(=O)N[C@@H](CCCNC(=N)N)C(=O)N[C@@H](CC(N)=O)C(=O)N[C@H](C(=O)N[C@@H](Cc1ccc(O)cc1)C(N)=O)[C@@H](C)O)C(C)C)[C@@H](C)O
notes: also called compound 78
B3: N^ε1-[2-[2-[2-[[(4S)-4-carboxy-4-(19-carboxynonadecanoylamino)butanoyl]amino]ethoxy]ethoxy]acetyl]-[Gly14,Arg17,Pro21,Pro27,Pro31]-h-amylin (peptide)
peptide: K([AEEA-γGlu-C20 diacid])CNTATCATQRLAGFLRHSSPNFGAIPSSTPVGSNTY-NH2
modifications: disulfide 2-7; N-terminus assumed
SMILES: CC[C@H](C)[C@H](NC(=O)[C@H](C)NC(=O)CNC(=O)[C@H](Cc1ccccc1)NC(=O)[C@H](CC(N)=O)NC(=O)[C@@H]1CCCN1C(=O)[C@H](CO)NC(=O)[C@H](CO)NC(=O)[C@H](Cc1c[nH]cn1)NC(=O)[C@H](CCCNC(=N)N)NC(=O)[C@H](CC(C)C)NC(=O)[C@H](Cc1ccccc1)NC(=O)CNC(=O)[C@H](C)NC(=O)[C@H](CC(C)C)NC(=O)[C@H](CCCNC(=N)N)NC(=O)[C@H](CCC(N)=O)NC(=O)[C@@H](NC(=O)[C@H](C)NC(=O)[C@@H]1CSSC[C@H](NC(=O)[C@@H](N)CCCCNC(=O)COCCOCCNC(=O)CC[C@H](NC(=O)CCCCCCCCCCCCCCCCCCC(=O)O)C(=O)O)C(=O)N[C@@H](CC(N)=O)C(=O)N[C@@H]([C@@H](C)O)C(=O)N[C@@H](C)C(=O)N[C@@H]([C@@H](C)O)C(=O)N1)[C@@H](C)O)C(=O)N1CCC[C@H]1C(=O)N[C@@H](CO)C(=O)N[C@@H](CO)C(=O)N[C@H](C(=O)N1CCC[C@H]1C(=O)N[C@H](C(=O)NCC(=O)N[C@@H](CO)C(=O)N[C@@H](CC(N)=O)C(=O)N[C@H](C(=O)N[C@@H](Cc1ccc(O)cc1)C(N)=O)[C@@H](C)O)C(C)C)[C@@H](C)O
notes: also called compound 71
B4: N^ε1-[2-[2-[2-[[(4S)-4-carboxy-4-(19-carboxynonadecanoylamino)butanoyl]amino]ethoxy]ethoxy]acetyl]-[His14,Arg17,Pro21,Pro27,Arg34]-h-amylin (peptide)
peptide: K([AEEA-γGlu-C20 diacid])CNTATCATQRLAHFLRHSSPNFGAIPSSTNVGRNTY-NH2
modifications: disulfide 2-7; N-terminus assumed
SMILES: CC[C@H](C)[C@H](NC(=O)[C@H](C)NC(=O)CNC(=O)[C@H](Cc1ccccc1)NC(=O)[C@H](CC(N)=O)NC(=O)[C@@H]1CCCN1C(=O)[C@H](CO)NC(=O)[C@H](CO)NC(=O)[C@H](Cc1c[nH]cn1)NC(=O)[C@H](CCCNC(=N)N)NC(=O)[C@H](CC(C)C)NC(=O)[C@H](Cc1ccccc1)NC(=O)[C@H](Cc1c[nH]cn1)NC(=O)[C@H](C)NC(=O)[C@H](CC(C)C)NC(=O)[C@H](CCCNC(=N)N)NC(=O)[C@H](CCC(N)=O)NC(=O)[C@@H](NC(=O)[C@H](C)NC(=O)[C@@H]1CSSC[C@H](NC(=O)[C@@H](N)CCCCNC(=O)COCCOCCNC(=O)CC[C@H](NC(=O)CCCCCCCCCCCCCCCCCCC(=O)O)C(=O)O)C(=O)N[C@@H](CC(N)=O)C(=O)N[C@@H]([C@@H](C)O)C(=O)N[C@@H](C)C(=O)N[C@@H]([C@@H](C)O)C(=O)N1)[C@@H](C)O)C(=O)N1CCC[C@H]1C(=O)N[C@@H](CO)C(=O)N[C@@H](CO)C(=O)N[C@H](C(=O)N[C@@H](CC(N)=O)C(=O)N[C@H](C(=O)NCC(=O)N[C@@H](CCCNC(=N)N)C(=O)N[C@@H](CC(N)=O)C(=O)N[C@H](C(=O)N[C@@H](Cc1ccc(O)cc1)C(N)=O)[C@@H](C)O)C(C)C)[C@@H](C)O
notes: also called compound 84

Key:
[1] = molecular target: T1, human calcitonin receptor; assay: SPA radioligand competition (125I-calcitonin), membranes of BHK cells with human calcitonin receptor
Protocol: Membranes were prepared in the following way; the cells were rinsed with PBS and incubated with Versene for approximately 5 min before harvesting. The cells were flushed with PBS and the cell-suspension was centrifuged for 5 min at 1000 rpm. Cells were homogenized (Ultrathurrax) in a buffer containing 20 mM Na-HEPES and 10 mM EDTA (pH 7.4) and centrifuged at 20.000 rpm for 15 min. The resulting pellet was resuspended, homogenized and centrifuged (20.000 rpm, 15 min) in a buffer containing 20 mM Na-HEPES and 0.1 mM EDTA (pH 7.4, buffer 2). The resulting pellet was resuspended in buffer 2 and protein concentration was measured (BCA protein Assay, Pierce). The homogenate was kept cold during the whole procedure. The membranes were kept at −80° C. until use. Assay was performed in a 384 well Optiplate (PerkinElmer) in a total volume of 40 ul. Membranes were mixed with SPA beads. Final concentration of membranes 35 ng/μL final and Final concentration of SPA beads was 0.05 mg/well. Test-compounds were dissolved in DMSO and further diluted in assay buffer (50 mM Hepes, pH 7.4, 1 mM CaCl2, 5 mM MgCl₂, 0.1% OA and 0.02% Tween20). […] The final mixture was incubated for 120 min with shaking at 400 rpm at 25° C. prior to centrifugation (1500 rpm, 10 min). Samples were analyzed on TopCounter™ (Packard). The […] was calculated using (one site binding competition analysis) GraphPad Prism5 as a measure of receptor affinity.

[2] = molecular target: T1, human calcitonin receptor; assay: ratio of IC50 at human calcitonin receptor to IC50 at human amylin receptor (SPA competition assays)
Protocol: The resulting pellet was resuspended, homogenized and centrifuged (20.000 rpm, 15 min) in a buffer containing 20 mM Na-HEPES and 0.1 mM EDTA (pH 7.4, buffer 2). The resulting pellet was resuspended in buffer 2 and protein concentration was measured (BCA protein Assay, Pierce). The homogenate was kept cold during the whole procedure. The membranes were kept at −80° C. until use. The assay was performed in a 384 well Optiplate (PerkinElmer) in a total volume of 40 ul. Membranes were mixed with SPA beads. Final concentration of membranes 35 ng/μL final and SPA beads was 0.05 mg/well. Test-compounds were dissolved in DMSO and further diluted in assay buffer (50 mM Hepes, pH 7.4, 1 mM CaCl2, 5 mM MgCl₂, 0.1% OA and 0.02% Tween20). […] The final mixture was incubated with shaking at 400 rpm for 120 min at 25° C. prior to centrifugation (1500 rpm, 10 min). Samples were analyzed on TopCounter™ (Packard). The IC₅₀ was calculated using (one site binding competition analysis) GraphPad Prism5 as a measure of receptor affinity.
Membranes were prepared in the following way; the cells were rinsed with PBS and incubated with Versene for approximately 5 min before harvesting. The cells were flushed with PBS and the cell-suspension was centrifuged for 5 min at 1000 rpm. Cells were homogenized (Ultrathurrax) in a buffer containing 20 mM Na-HEPES and 10 mM EDTA (pH 7.4) and centrifuged at 20.000 rpm for 15 min. The resulting pellet was resuspended, homogenized and centrifuged (20.000 rpm, 15 min) in a buffer containing 20 mM Na-HEPES and 0.1 mM EDTA (pH 7.4, buffer 2). The resulting pellet was resuspended in buffer 2 and protein concentration was measured (BCA protein Assay, Pierce). The homogenate was kept cold during the whole procedure. The membranes were kept at −80° C. until use. Assay was performed in a 384 well Optiplate (PerkinElmer) in a total volume of 40 ul. Membranes were mixed with SPA beads.

Row | Binder | IC50 [1] | Ratio hCT/hAmylin binding [2]
1 | B1 | 88.8 nM | 140
2 | B2 | 36.5 nM | 60.7
3 | B3 | 1.53 nM | 32
4 | B4 | 88.9 nM | 120
